Where a chain is given by its changes, count along the chain named. Like-named read-outs stand apart in the source and are kept apart here. One block for each binder: values may come before it.
Columns and labels:
Experiment in all cases: cell-based or functional assay
human GPRC5D [1] = target: T1, human GPRC5D (human, UniProt Q9NZD1 1-345)
human GPRC5D [2] = target: T1, human GPRC5D; remark: listed apart in the source
human GPRC5D [3] = target: T1, human GPRC5D; remark: listed apart in the source

T1 sequence (Q9NZD1 whole entry): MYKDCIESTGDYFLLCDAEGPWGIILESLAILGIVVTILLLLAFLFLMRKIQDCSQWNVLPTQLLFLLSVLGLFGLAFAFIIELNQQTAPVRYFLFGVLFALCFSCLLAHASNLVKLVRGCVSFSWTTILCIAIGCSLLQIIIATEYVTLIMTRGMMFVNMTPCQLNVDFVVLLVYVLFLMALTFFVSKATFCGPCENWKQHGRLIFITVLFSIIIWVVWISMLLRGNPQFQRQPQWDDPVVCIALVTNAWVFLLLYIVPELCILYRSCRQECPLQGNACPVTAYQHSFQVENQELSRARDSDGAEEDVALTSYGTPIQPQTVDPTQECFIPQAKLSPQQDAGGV

B1: P1AE5762 (antibody, V domains shown)
VH: EVQLVESGGGLVQPGGSLRLSCAASGFSFSNYGMAWVRQAPGKGLEWVASISTGGGNTYYADSVKGRFTISRDNAKNTLYLQMNSLRAEDTAVYYCTRHDRGGLYWGQGTMVTVSS
VL: DIVMTQSPLSLPVTPGEPASISCRSSKSLLHSNGITYVYWYLQKPGQSPQLLIYRMSNRASGVPDRFSGSGSGTDFTLKISRVEAEDVGVYHCGQLLENPYTFGQGTKLEIK
CAR-J2 EC50 (PGLALA-CAR-J activation, L363 target cells) (human GPRC5D [1]): 0.0842 µg/mL

B2: P1AE5742 (antibody, V domains shown)
VH: B1 VH with L11V, G16R, A61R
VL: DIVMTQSPDSLAVSLGERATINCKSSKSLLHSNGITYVYWYQQKPGQPPKLLIYRMSNLASGVPDRFSGSGSGTDFTLTISSLQAEDVAVYHCGQLLENPYTFGQGTKLEIK
CAR-J2 EC50 (PGLALA-CAR-J activation, L363 target cells) (human GPRC5D [1]): 0.0619 µg/mL

B3: P1AE5737 (antibody, V domains shown)
VH: B1 VH with E1Q, L11V, G16R, A61R, A75S
VL: B2 VL
CAR-J2 EC50 (PGLALA-CAR-J activation, L363 target cells) (human GPRC5D [1]): 0.00295 µg/mL

B5: P1AE5753 (antibody, V domains shown)
VH: B1 VH with L11V, G16R
VL: B2 VL
CAR-J2 EC50 (PGLALA-CAR-J activation, L363 target cells) (human GPRC5D [1]): 0.03 µg/mL

B8: P1AE5743 (antibody, V domains shown)
VH: B1 VH with L11V, G16R, A61R
VL: EIVLTQSPGTLSLSPGERATLSCRASKSLLHSNGITYVYWYQQKPGQAPRLLIYRMSNLASGIPDRFSGSGSGTDFTLTISRLEPEDFAVYHCGQLLENPYTFGQGTKLEIK
CAR-J2 EC50 (PGLALA-CAR-J activation, L363 target cells) (human GPRC5D [1]): 0.583 µg/mL

B12: P1AE5759 (antibody, V domains shown)
VH: B1 VH with A61R
VL: B8 VL
CAR-J2 EC50 (PGLALA-CAR-J activation, L363 target cells) (human GPRC5D [1]): 0.0157 µg/mL

B13: P1AE5764 (antibody, V domains shown)
VH: B1 VH
VL: B8 VL
CAR-J2 EC50 (PGLALA-CAR-J activation, L363 target cells) (human GPRC5D [1]): 0.0782 µg/mL

B14: 10B10-TCB (bispecific antibody)
light 1: DIQLTQSPHSLSASLGETVSIECLASEGISNYLAWFHQKPGKSPQLLIYYASSLQDGVPSRFSGSGSGTQYSLKISNMQPEDEGVYYCQQGYKYPLTFGSGTKLEIKRTVAAPSVFIFPPSDRKLKSGTASVVCLLNNFYPREAKVQWKVDNALQSGNSQESVTEQDSKDSTYSLSSTLTLSKADYEKHKVYACEVTHQGLSSPVTKSFNRGEC
light 2: EVQLLESGGGLVQPGGSLRLSCAASGFTFSTYAMNWVRQAPGKGLEWVSRIRSKYNNYATYYADSVKGRFTISRDDSKNTLYLQMNSLRAEDTAVYYCVRHGNFGNSYVSWFAYWGQGTLVTVSSASVAAPSVFIFPPSDEQLKSGTASVVCLLNNFYPREAKVQWKVDNALQSGNSQESVTEQDSKDSTYSLSSTLTLSKADYEKHKVYACEVTHQGLSSPVTKSFNRGEC
heavy 1: EVQLVESGGGLVQPGRSMKLSCAASGFTFTNFYMAWVRQAPTKALEWVASINTGGGYTYYRDSVKGRFTVSRDNTRSTLYLQMDSLRSEETATYYCARHLTYYGRYYYFDYWGQGVMVTVSSASTKGPSVFPLAPSSKSTSGGTAALGCLVEDYFPEPVTVSWNSGALTSGVHTFPAVLQSSGLYSLSSVVTVPSSSLGTQTYICNVNHKPSNTKVDEKVEPKSCDKTHTCPPCPAPEAAGGPSVFLFPPKPKDTLMISRTPEVTCVVVDVSHEDPEVKFNWYVDGVEVHNAKTKPREEQYNSTYRVVSVLTVLHQDWLNGKEYKCKVSNKALGAPIEKTISKAKGQPREPQVCTLPPSRDELTKNQVSLSCAVKGFYPSDIAVEWESNGQPENNYKTTPPVLDSDGSFFLVSKLTVDKSRWQQGNVFSCSVMHEALHNHYTQKSLSLSPGK
heavy 2: not shown
EC50 of in vitro killing, AMO-1 cells (human GPRC5D [2]): 84 pM
EC50 of in vitro killing, EJM cells (human GPRC5D [2]): 79 pM
EC50 of in vitro killing, L363 cells (human GPRC5D [2]): 34 pM
EC50 of in vitro killing, MOLP-2 cells (human GPRC5D [2]): 160 pM
EC50 of in vitro killing, NCI-H929 cells (human GPRC5D [2]): 56 pM
EC50 of in vitro killing, OPM-2 cells (human GPRC5D [2]): 28 pM
EC50 of in vitro killing, RPMI cells (human GPRC5D [2]): 965 pM

B15: B72-TCB (bispecific antibody, human IgG1, kappa, L234A L235A)
heavy 1: not shown
light 1: B14 light 2 with L5V, S30N, S49A, D64A, T80S, R89K, A90T, V99A
heavy 2: QVQLVQSGAEVKKPGASVKVSCKASGYSFTGYTMNWVRQAPGQGLEWMGLINPYNSDTNYAQKLQGRVTMTTDTSTSTAYMELRSLRSDDTAVYYCARVALRVALDYWGQGTLVTVSSASTKGPSVFPLAPSSKSTSGGTAALGCLVEDYFPEPVTVSWNSGALTSGVHTFPAVLQSSGLYSLSSVVTVPSSSLGTQTYICNVNHKPSNTKVDEKVEPKSCDKTHTCPPCPAPEAAGGPSVFLFPPKPKDTLMISRTPEVTCVVVDVSHEDPEVKFNWYVDGVEVHNAKTKPREEQYNSTYRVVSVLTVLHQDWLNGKEYKCKVSNKALGAPIEKTISKAKGQPREPQVCTLPPSRDELTKNQVSLSCAVKGFYPSDIAVEWESNGQPENNYKTTPPVLDSDGSFFLVSKLTVDKSRWQQGNVFSCSVMHEALHNHYTQKSLSLSPGK
light 2: DIQMTQSPSSLSASVGDRVTITCKASQNVATHVGWYQQKPGKAPKRLIYSASYRYSGVPSRFSGSGSGTEFTLTISNLQPEDFATYYCQQYNRYPYTFGQGTKLEIKRTVAAPSVFIFPPSDRKLKSGTASVVCLLNNFYPREAKVQWKVDNALQSGNSQESVTEQDSKDSTYSLSSTLTLSKADYEKHKVYACEVTHQGLSSPVTKSFNRGEC
EC50 of in vitro killing, AMO-1 cells (human GPRC5D [2]): 109 pM
EC50 of in vitro killing, EJM cells (human GPRC5D [2]): 60 pM
EC50 of in vitro killing, L363 cells (human GPRC5D [2]): 58 pM
EC50 of in vitro killing, MOLP-2 cells (human GPRC5D [2]): 124 pM
EC50 of in vitro killing, NCI-H929 cells (human GPRC5D [2]): 58 pM
EC50 of in vitro killing, OPM-2 cells (human GPRC5D [2]): 171 pM
EC50 of in vitro killing, RPMI cells (human GPRC5D [2]): 193 pM

B17: P1AE5707 (antibody, V domains shown)
VH: EVQLLESGGGLVQPGGSLRLSCAASGFTFSKYAMAWVRQAPGKGLEWVASISTGGVNTYYRDSVKARFTISRDNSKNTLYLQMNSLRAEDTAVYYCATHTGDYFDYWGQGTMVTVSS
VL: DIVMTQSPDSLAVSLGERATINCRASQSVSISGINLMNWYQQKPGQQPKLLIYHASILASGVPDRFSGSGSGTDFTLTISSLQAEDVAVYYCQQTRESPLTFGQGTRLEIK
CAR-J2 EC50 (PGLALA-CAR-J activation, L363 target cells) (human GPRC5D [3]): 0.0424 µg/mL

B20: P1AE5714 (antibody, V domains shown)
VH: B17 VH with V2L, S75A
VL: B17 VL
CAR-J2 EC50 (PGLALA-CAR-J activation, L363 target cells) (human GPRC5D [3]): 0.0055 µg/mL

B21: P1AE5715 (antibody, V domains shown)
VH: B17 VH with V2L, S75A
VL: B17 VL with R24K, A25S
CAR-J2 EC50 (PGLALA-CAR-J activation, L363 target cells) (human GPRC5D [3]): 0.0036 µg/mL

B22: P1AE5720 (antibody, V domains shown)
VH: B17 VH with R61A, A66G
VL: B17 VL
CAR-J2 EC50 (PGLALA-CAR-J activation, L363 target cells) (human GPRC5D [3]): 0.0063 µg/mL

B23: P1AE5721 (antibody, V domains shown)
VH: B17 VH with R61A, A66G
VL: B17 VL with R24K, A25S
CAR-J2 EC50 (PGLALA-CAR-J activation, L363 target cells) (human GPRC5D [3]): 0.025 µg/mL

B24: P1AE5726 (antibody, V domains shown)
VH: B17 VH with V2L, R61A, A66G, S75A
VL: B17 VL
CAR-J2 EC50 (PGLALA-CAR-J activation, L363 target cells) (human GPRC5D [3]): 0.0378 µg/mL

B26: P1AE5733 (antibody, V domains shown)
VH: EVQLVESGGGLVQPGRSLKLSCAASGFSFSNYGMAWVRQAATKGLEWVASISTGGGNTYYRDSVKGRFIVSRDNAKNTQYLQMDSLRSEDTATYYCTRHDRGGLYWGQGVMVTVSS
VL: DIVMTQAPLSVSVTPGESASISCRSSKSLLHSNGITYVYWYFQKPGKSPQVLIYRMSNLASGVPDRFSGSGSETDFTLKISRVEAEDVGIYHCGQLLENPYTFGAGTELELK
CAR-J2 EC50 (PGLALA-CAR-J activation, L363 target cells) (human GPRC5D [1]): 0.00265 µg/mL

Now from value to binder:

CAR-J2 EC50 (PGLALA-CAR-J activation, L363 target cells) (human GPRC5D [1]): 0.183 µg/mL
B4: P1AE5747 (antibody, V domains shown)
VH: B1 VH with E1Q, L11V, G16R, A75S
VL: B2 VL

CAR-J2 EC50 (PGLALA-CAR-J activation, L363 target cells) (human GPRC5D [1]): 0.19 µg/mL
B6: P1AE5758 (antibody, V domains shown)
VH: B1 VH with A61R
VL: B2 VL

CAR-J2 EC50 (PGLALA-CAR-J activation, L363 target cells) (human GPRC5D [1]): 0.00547 µg/mL
B7: P1AE5763 (antibody, V domains shown)
VH: B1 VH
VL: B2 VL

CAR-J2 EC50 (PGLALA-CAR-J activation, L363 target cells) (human GPRC5D [1]): 0.397 µg/mL
B9: P1AE5738 (antibody, V domains shown)
VH: B1 VH with E1Q, L11V, G16R, A61R, A75S
VL: B8 VL

CAR-J2 EC50 (PGLALA-CAR-J activation, L363 target cells) (human GPRC5D [1]): 0.0826 µg/mL
B10: P1AE5749 (antibody, V domains shown)
VH: B1 VH with E1Q, L11V, G16R, A75S
VL: B8 VL

CAR-J2 EC50 (PGLALA-CAR-J activation, L363 target cells) (human GPRC5D [1]): 0.00889 µg/mL
B11: P1AE5754 (antibody, V domains shown)
VH: B1 VH with L11V, G16R
VL: B8 VL

CAR-J2 EC50 (PGLALA-CAR-J activation, L363 target cells) (human GPRC5D [3]): 0.0039 µg/mL
B16: P1AE5706 (antibody, V domains shown)
VH: ELQLEQSGGGLVQPGGSLTLSCAASGFTFSKYAMAWVRQAPTKGLEWVASISTGGVNTYYRDSVKARFTISRDNAKNTQYLQMDSLRSEDTATYYCATHTGDYFDYWGQGVMVTVSS
VL: DIVLTQSPALAVSPGQRATISCRASQSVSISGINLMNWYQQKPGQQPKLLIYHASILASGIPTRFSGSGSGTDFTLTIDPVQADDIATYYCQQTRESPLTFGSGTNLEIK

CAR-J2 EC50 (PGLALA-CAR-J activation, L363 target cells) (human GPRC5D [3]): 0.456 µg/mL
B18: P1AE5708 (antibody, V domains shown)
VH: B17 VH
VL: B17 VL with R24K, A25S

CAR-J2 EC50 (PGLALA-CAR-J activation, L363 target cells) (human GPRC5D [3]): 0.0769 µg/mL
B19: P1AE5713 (antibody, V domains shown)
VH: B17 VH
VL: DIQMTQSPSSLSASVGDRVTITCRASQSVSISGINLMNWYQQKPGQQPKLLIYHASILASGVPSRFSGSGSGTDFTLTISSLQPEDFATYYCQQTRESPLTFGQGTRLEIK

CAR-J2 EC50 (PGLALA-CAR-J activation, L363 target cells) (human GPRC5D [3]): 0.0063 µg/mL
B25: P1AE5727 (antibody, V domains shown)
VH: B17 VH with V2L, R61A, A66G, S75A
VL: B17 VL with R24K, A25S

— patent publication US20210054094A1 (Hoffmann-La Roche, published 2021)
